Reference: the nanobody polyreactivity screen of Harvey et al. (2022)

Test: yeast display, Sf9 membrane polyspecificity reagent, FACS + sequencing; frameworks hold sequencing errors
Procedure, shortened: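 Genes from sorted yeast were amplified by colony PCR, read by MiSeq 2 × 250 sequencing and filtered on CDR length. These cells carried a synthetic nanobody library in Saccharomyces cerevisiae BJ5465 and were sorted by FACS into low and high (top ~1%) gates on anti-HA and streptavidin fluorescence. Polyreactivity is labelled according to the gate of origin.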

Sequence | polyreactivity (PSR sort gate)
QVQLVESGGGLVQAGGSLRLSCAASGFTFSYYAMGWYRQAPGKERELVAAITSGGRTYYADSVKGRFTISRDNAKNTVYLQMNSLKPEDTAVYYCATSSQRWFYSGNYWGQGTQVTVSS | high polyreactivity
QVQLVESGGGLVQAGGSLRLSCAASGFTFSYYAMGWYRQAPGKERELVAAITSGGSTYYADYVKGRFTISRDNAKNTVYLQMNRLKPEDTAVYYCNADGWYYPTDDYWGQGTQVTVSS | low polyreactivity
QVQLVESGGGLVQAGGSLRLSCAASGFTFSYYAMGWYRQAPGKERELVATITSGGSTYYADSVKGRFTISRDNAKNTVYLQMNSLKPEDTAVYYCNADWYWRVYWGQGTQVTVSS | high polyreactivity
QVQLVESGGGLVQAGGSLRLSCAASGFTFSYYVMGWYRPAPGKDRELVAAIDWSGDSTYYPDSVKGRFTISRDNAKNTVYLQMISLKPEDTAVYYCAADQHAYYPYYYWGQGTQVTVSS | low polyreactivity
QVQLVESGGGLVQAGGSLRLSCAASGFTFTAYAMGWYRQAPGKERELVAAINWSGSRTYYADSVKGRFTISRDNAKNTVYLQMNSLKPEDTAVYYCNTATSKSSYRHYDYWGQGTQVTVSS | high polyreactivity
QVQLVESGGGLVQAGGSLRLSCAASGFTFTDYAMGWYRQAPAKERELVAVITYDSTYYADSVKGRFTISRDNAKNTVYLQMNSLKPEDTAVYYCAADSYDWGDFDYWGQGTEVTVSS | low polyreactivity
QVQLVESGGGLVQAGGSLRLSCAASGFTFTDYTMGWYIQAPGTEREFVAAISYRGSNTYYADSVKGRFTISRDNAKNTVYLQMNSLKPLDTAVYYCAADSYRYKYNYWGQGTQVTVSS | high polyreactivity
QVQLVESGGGLVQAGGSLRLSCAASGFTFTGNAMGWYRPAPGKERELVAAISRSGGSTFYADSVKGRFTISRDNAKNTVYLQMNSLKPEDTAVYYCAARRRTLNYLYDYWGQGTQVTVSS | high polyreactivity
QVQLVESGGGLVQAGGSLRLSCAASGFTFTGYAMGWYRQAPGKERELVAAINRSGGTTYYADSVKGRFTISRDNAKNTVYLQMNSLKPEDTAVFYCAAFPSGRHRGDYWGQGTQVTVSS | high polyreactivity
QVQLVESGGGLVQAGGSLRLSCAASGFTFTGYAMGWYRQAPGKERELVAVISSRGGSTYYADSVKGRFTISRDNAKNTVYLQMNSLKPEDTAVYYCAARGSKGFSSPFGYWGQGTQVTVSS | high polyreactivity
QVQLVESGGGLVQAGGSLRLSCAASGFTFTHYAMGWYRQAPGKERELVAAITDTGGGTYYADSVKGRFTISRHNAKNTVYLQMNSLKPQDTAVYYCAKPTSYRGYYSWGQGTQVTVSS | high polyreactivity
QVQLVESGGGLVQAGGSLRLSCAASGFTFTIYAMGWYRQAPGKERELVATISGRAGRTYYADSVKGRFTISRDNAKNTVYLQMNSLKPEDTAVYYCNAGQWRYPGLYYYWGQGTQVTVSS | high polyreactivity
QVQLVESGGGLVQAGGSLRLSCAASGFTFTKNAMGWYRQAPGKERELVAAISRGGGRTYYADSVKGRFTISRDNAKNTVYLQMNSLKPEDTAVYYCNVDKVGPGYDYWGQGTQVTVSS | high polyreactivity
QVQLVESGGGLVQAGGSLRLSCAASGFTFTKYAMGWYIQATGKERELVAAISRSGSSTYYADSVKGRFTISRDNAKNTVYLQMNSLKPEDTAVYYCAADNGYGDYYYWGQGTQVTVSS | high polyreactivity
QVQLVESGGGLVQAGGSLRLSCAASGFTFTKYAMGWYRQAPGKERELVAAISGRGGSTYYADSVKGRFTISRDNAKNTVYLQMNSLKPEDTAVYYCAKYRYTVAGYNYWGQGTQVTVSS | high polyreactivity
QVQLVESGGGLVQAGGSLRLSCAASGFTFTNNAMGWYRQAPGKERELVAAIRRSGTNTYYADSVKGRFTISRDNAKNPVYLQMNSLKPEDTAVYYCATDGYEYTDYGSSGYDYWGQGTQVTVSS | low polyreactivity

Sequence | polyreactivity (PSR sort gate)
QVQLVESGGGLVQAGGSLRLSCAASGFTFTQYVKGWYRQAPGKERELVAAITRGGGSTYYADSVKGRFTISRDNAKNTVYLQMNRLKPEDTAFYYCATRRVEYIRGWVEYDYWGQGTQVTVSS | low polyreactivity
QVQLVESGGGLVQAGGSLRLSCAASGFTFTRNAMGRYRQAPGKERELVAAITSSGGRTYYADSVKGRFTISRDNAKNTVYLQMNSLKPVDTAVYYCAVYPRYSLPARDYDYWGQGTQVTVSS | high polyreactivity
QVQLVESGGGLVQAGGSLRLSCAASGFTFTRNAMGWYRQAPGKERELVAAISKSGGRTYYADSVKGRFTISRDNAKNTVYLKMNSLKPEDSAVYYCAVVPRPFGLGSDYDYWGQGTQVTVSS | high polyreactivity
QVQLVESGGGLVQAGGSLRLSCAASGFTFTRNAMGWYRQAPGKERELVAASTWSGGSTYYADSVKGRFTISRDNAKNTVYLQMNSLKPEDTAVYDCAALYRSRYYAGDYWGQGTQVTVSS | high polyreactivity
QVQLVESGGGLVQAGGSLRLSCAASGFTFTRNAMGWYRQAPGKERFVAAITGSGASTYYADSVKGRFTISRDNAKNTVYLQMNSLKPEDTAVYYCNAEYYAGRYRYDYWGQGTQVTVSS | high polyreactivity
QVQLVESGGGLVQAGGSLRLSCAASGFTFTRYAMGWSRQAPGKETELVAAISSGSRTYYADSVKGRFTISRDNAKNTVYLQMNSLKPEDTAVYYCAAPVYTYYGHYDSWGQGTQVTVSS | high polyreactivity
QVQLVESGGGLVQAGGSLRLSCAASGFTFTRYGMGWYRQSPGKERELVAGISSGGSTNYADSVKGRFTISRDNSKNTVYLQMNSLKPEDTAVYYCAAGFYSHGIELGYWGQGTQVTVSS | high polyreactivity
QVQLVESGGGLVQAGGSLRLSCAASGFTFTSYAMGWYRQAPGKERELVAAINRSGGSTTYADSVKGRFTISRDNAKNTVYLQMNSLNPEDTAVYYCAKAFRGHYWGQGTQVTVSS | high polyreactivity
QVQLVESGGGLVQAGGSLRLSCAASGFTFTTNAMGWYRQAPGKERELVAAISKRGTRTYYADSVKGRFTISRDNAKNTVYLQMNSLKPEDTAVYYCAAASVAGDKFDYWGQGTQVTVSS | high polyreactivity
QVQLVESGGGLVQAGGSLRLSCAASGFTFTTYGMGWSRQAPWKERELVAAISWSGGSTYYADSVKGRFTISRDNAKNTVYLQMNSLNPEYTAVYYCAKDRTYQASTLGYWGQGTQVTVSS | low polyreactivity
QVQLVESGGGLVQAGGSLRLSCAASGFTFTTYVMGSYRQAPGKERELVAAISRRGTSTRYADSVKGRFTISRDNAKNTVYLQMNSLKPEDTAVYYCAADRPYSIVPYDYWGQGTQVTVSS | high polyreactivity
QVQLVESGGGLVQAGGSLRLSCAASGFTFTWNTMGWYRQAPGKERELVAAITTGGRTYYADSVKGRFTISRDNAKNTVYLQMNSLKPEDTAVYYCNKLFIAKYDSWGQGTQVTVSS | high polyreactivity
QVQLVESGGGLVQAGGSLRLSCAASGFTFTYNAMGWYRQAPGKERELVAAITANGGGTNYADSVKGRFTISRDNAKNTVYLQMNSLKPEDTAVYYCAATIVVAVFESLVFYWYTEDNYWGQGTQVTVSS | low polyreactivity
QVQLVESGGGLVQAGGSLRLSCAASGFTFTYNAMGWYRQAPGKERELVARIRWSTGSTYYADSVKGRFTISRDNAKKTVYLQMNSLKPEDTAVYYCAADGYGWGGSGWQYPHGFGYWGQGTQVTVSS | low polyreactivity
QVQLVESGGGLVQAGGSLRLSCAASGFTFTYYAMGWYRQAPGKERELVAAISRNGGDTYYADSGKGRFTISRDNAKNTVYLQMNSLKPEDSAVYYCNARTPTDSTHFDYWGQGTQVTVSS | low polyreactivity
QVQLVESGGGLVQAGGSLRLSCAASGFTFTYYAMGWYRQAPGNERELVAAISSGGNTYYADSVKGRFTISRDNAKNTVYLQMNSLKPEDTAVYYCAAQYSKRAWSWTYAYSYFRFDYWGQGTQVTVSS | low polyreactivity
